Measured values: patent US20120058499

Assays:
[1] = molecular target: hSUMO2-amino-luciferin, P61956
[2] = molecular target: T1, Z-Arg-Leu-Arg-Gly-Gly (SEQ ID NO: 1)-amino-luciferin
T1 chain: RLRGG

[3] = molecular target: ubiquitin-7-amino-4-methylcoumarin, P0CG47
[4] = molecular target: ubiquitin-rhodamine110, P0CG47
ubiquitin-rhodamine110, P0CG47, sequence (P0CG47 whole entry, looked up): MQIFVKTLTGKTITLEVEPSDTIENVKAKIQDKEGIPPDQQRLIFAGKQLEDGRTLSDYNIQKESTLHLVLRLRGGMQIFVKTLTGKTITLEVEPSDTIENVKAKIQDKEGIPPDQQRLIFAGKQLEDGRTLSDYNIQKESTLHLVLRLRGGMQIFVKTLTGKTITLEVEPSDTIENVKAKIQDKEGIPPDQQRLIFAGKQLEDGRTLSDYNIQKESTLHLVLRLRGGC

hSUMO2-amino-luciferin, P61956, sequence (P61956 1-93): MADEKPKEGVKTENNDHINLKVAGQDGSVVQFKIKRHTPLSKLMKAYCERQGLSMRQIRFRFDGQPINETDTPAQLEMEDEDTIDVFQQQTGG
ubiquitin-7-amino-4-methylcoumarin, P0CG47, sequence (P0CG47 whole entry, looked up): as the sequence (P0CG47 whole entry, looked up) above

B1: SENP1 (protein)
chain: EFPEITEEMEKEIKNVFRNGNQDEVLSEAFRLTITRKDIQTLNHLNWLNDEIINFYMNMLMERSKEKGLPSVHAFNTFFFTKLKTAGYQAVKRWTKKVDVFSVDILLVPIHLGVHWCLAVVDFRKKNITYYDSMGGINNEACRILLQYLKQESIDKKRKEFDTNGWQLFSKKSQEIPQQMNGSDCGMFACKYADCITKDRPINFTQQHMPYFRKRMVWEILHRKLL
- luminescence signal (S/B), enzyme 200 pM [1]: SENP1, SENP2, and SENP6 (200 pM) on the other hand gave strong signals with hSUMO2-amino-luciferin

B2: USP8 (protein)
chain: MPAVASVPKELYLSSSLKDLNKKTEVKPEKISTKSYVHSALKIFKTAEECRLDRDEERAYVLYMKYVTVYNLIKKRPDFKQQQDYFHSILGPGNIKKAVEEAERLSESLKLRYEEAEVRKKLEEKDRQEEAQRLQQKRQETGREDGGTLAKGSLENVLDSKDKTQKSNGEKNEKCETKEKGAITAKELYTMMTDKNISLIIMDARRMQDYQDSCILHSLSVPEEAISPGVTASWIEAHLPDDSKDTWKKRGNVEYVVLLDWFSSAKDLQIGTTLRSLKDALFKWESKTVLRNEPLVLEGGYENWLLCYPQYTTNAKVTPPPRRQNEEVSISLDFTYPSLEESIPSKPAAQTPPASIEVDENIELISGQNERMGPLNISTPVEPVAASKSDVSPIIQPVPSIKNVPQIDRTKKPAVKLPEEHRIKSESTNHEQQSPQSGKVIPDRSTKPVVFSPTLMLTDEEKARIHAETALLMEKNKQEKELRERQQEEQKEKLRKEEQEQKAKKKQEAEENEITEKQQKAKEEMEKKESEQAKKEDKETSAKRGKEITGVKRQSKSEHETSDAKKSVEDRGKRCPTPEIQKKSTGDVPHTSVTGDSGSGKPFKIKGQPESGILRTGTFREDTDDTERNKAQREPLTRARSEEMGRIVPGLPSGWAKFLDPITGTFRYYHSPTNTVHMYPPEMAPSSAPPSTPPTHKAKPQIPAERDREPSKLKRSYSSPDITQAIQEEEKRKPTVTPTVNRENKPTCYPKAEISRLSASQIRNLNPVFGGSGPALTGLRNLGNTCYMNSILQCLCNAPHLADYFNRNCYQDDINRSNLLGHKGEVAEEFGIIMKALWTGQYRYISPKDFKITIGKINDQFAGYSQQDSQELLLFLMDGLHEDLNKADNRKRYKEENNDHLDDFKAAEHAWQKHKQLNESIIVALFQGQFKSTVQCLTCHKKSRTFEAFMYLSLPLASTSKCTLQDCLRLFSKEEKLTDNNRFYCSHCRARRDSLKKIEIWKLPPVLLVHLKRFSYDGRWKQKLQTSVDFPLENLDLSQYVIGPKNNLKKYNLFSVSNHYGGLDGGHYTAYCKNAARQRWFKFDDHEVSDISVSSVKSSAAYILFYTSLGPRVTDVAT
- luminescence signal (S/B), enzyme 200 pM [1]: hSUMO2-amino-luciferin yielded virtually no signal with the DUBs USP34, USP7, and USP8 at concentrations equal to 200 pM
- S/B against the S/B for both Ub-AMC and Ub-Rhodamine110, enzyme 0.5 nM (Ub(1-76)-aminoluciferin): increased by ~100-fold relative to the S/B for both Ub-AMC and Ub-Rhodamine110

B3: USP34 (protein)
chain: VGLTNLGATCYLASTIQQLYMIPEARQAVFTAKYSEDMKHKTTLLELQKMFTYLMESECKAYNPRPFCKTYTMDKQPLNTGEQKDMTEFFTDLITKIEEMSPELKNTVKSLFGGVITNNVVSLDCEHVSQTAEEFYTVRCQVADMKNIYESLDEVTIKDTLEGDNMYTCSHCGKKVRAEKRACFKKLPRILSFNTMRYTFNMVTMMKEKVNTHFSFPLRLDMTPYTEDFLMGKSERKEGFKEVSDHSKDSESYEYDLIGVTVHTGTADGGHYYSFIRDIVNPHAYKNNKWYLFNDAEVKPFDSAQLASECFGGEMTTKTYDSVTDKFMDFSFEKTHSAYMLFYKRM
- luminescence signal (S/B), enzyme 200 pM [1]: hSUMO2-amino-luciferin yielded virtually no signal with the DUBs USP34, USP7, and USP8 at concentrations equal to 200 pM

B4: USP2core (the common catalytic core domain of the two isoforms of USP2, USP2a and USP2b) (protein)
chain: NSKSAQGLAGLRNLGNTCFMNSILQCLSNTRELRDYCLQRLYMRDLHHGSNAHTALVEEFAKLIQTIWTSSPNDVVSPSEFKTQIQRYAPRFVGYNQQDAQEFLRFLLDGLHNEVNRVTLRPKSNPENLDHLPDDEKGRQMWRKYLEREDSRIGDLFVGQLKSSLTCTDCGYCSTVFDPFWDLSLPIAKRGYPEVTLMDCMRLFTKEDVLDGDEKPTCCRCRGRKRCIKKFSIQRFPKILVLHLKRFSESRIRTSKLTTFVNFPLRDLDLREFASENTNHAVYNLYAVSNHSGTTMGGHYTAYCRSPGTGEWHTFNDSSVTPMSSSQVRTSDAYLLFYELASPPSRM
- S/B against the S/B for both Ub-AMC and Ub-Rhodamine110, enzyme 0.5 nM (Ub(1-76)-aminoluciferin): increased by ~100-fold relative to the S/B for both Ub-AMC and Ub-Rhodamine110

B5: AMSH (associated molecule with the SH3 domain of STAM) (protein)
chain: MSDHGDVSLPPEDRVRALSQLGSAVEVNEDIPPRRYFRSGVEIIRMASIYSEEGNIEHAFILYNKYITLFIEKLPKHRDYKSAVIPEKKDTVKKLKEIAFPKAEELKAELLKRYTKEYTEYNEEKKKEAEELARNMAIQQELEKEKQRVAQQKQQQLEQEQFHAFEEMIRNQELEKERLKIVQEFGKVDPGLGGPLVPDLEKPSLDVFPTLTVSSIQPSDCHTTVRPAKPPVVDRSLKPGALSNSESIPTIDGLRHVVVPGRLCPQFLQLASANTARGVETCGILCGKLMRNEFTITHVLIPKQSAGSDYCNTENEEELFLIQDQQGLITLGWIHTHPTQTAFLSSVDLHTHCSYQMMLPESVAIVCSPKFQETGFFKLTDHGLEEISSCRQKGFHPHSKDPPLFCSCSHVTVVDRAVTITDLR
- Signal to Background, luminescence, DUB 10 nM [2]: 1.4 S/B

B6: Ataxin3-like (protein)
chain: MDFIFHEKQEGFLCAQHCLNNLLQGEYFSPVELASIAHQLDEEERMRMAEGGVTSEEYLAFLQQPSENMDDTGFFSIQVISNALKFWGLEIIHFNNPEYQKLGIDPINERSFICNYKQHWFTIRKFGKHWFNLNSLLAGPELISDTCLANFLARLQQQAYSVFVVKGDLPDCEADQLLQIISVEEMDTPKLNGKKLVKQKEHRVYKTVLEKVSEESDESGTSDQDEEDFQRALELSRQETNREDEHLRSTIELSMQGSSGNTSQDLPKTSCVTPASEQPKKIKEDYFEKHQQEQKQQQQQSDLPGHSSYLHERPTTSSRAIESDLSDDISEGTVQAAVDTILEIMRKNLKIKGEK
- Signal to Background, luminescence, DUB 10 nM [2]: 1.5 S/B
- Signal to Background, fluorescence, DUB 10 nM [3]: 1.1 S/B
- Signal to Background, fluorescence, DUB 10 nM [4]: 1.6 S/B
- Signal to Background, luminescence, DUB 10 nM (Ub(1-76)-aminoluciferin): 120 S/B

B7: SENP6 (protein)
chain: EEETGENHTIFIGPVEKLIVYPPPPAKGGISVTNEDLHCLNEGEFLNDVIIDFYLKYLVLEKLKKEDADRIHIFSSFFYKRLNQRERRNHETTNLSIQQKRHGRVKTWTRHVDIFEKDFIFVPLNEAAHWFLAVVCFPGLEKPKYEPNPHYHENAVIQKCSTVEDSCISSSASEMESCSQNSSAKPVIKKMLNKKHCIAVIDSNPGQEESDPRYKRNICSVKYSVKKINHTASENEEFNKGESTSQKVADRTKSENGLQNESLSSTHHTDGLSKIRLNYSDESPEAGKMLEDELVDFSEDQDNQDDSSDDGFLADDNCSSEIGQWHLKPTICKQPCILLMDSLRGPSRSNVVKILREYLEVEWEVKKGSKRSFSKDVMKGSNPKVPQQNNFSDCGVYVLQYVESFFENPILSFELPMNLANWFPPPRMRTKREEIRNIILKLQEDQSKEKRKHKDTYSTEAPLGEGTEQYVNSISD
- luminescence signal (S/B), enzyme 200 pM [1]: SENP1, SENP2, and SENP6 (200 pM) on the other hand gave strong signals with hSUMO2-amino-luciferin
- luminescence signal (S/B), enzyme 200 pM [2]: Z-Arg-Leu-Arg-Gly-Gly (SEQ ID NO: 1)-amino-luciferin also gave signals with SENP2 and SENP6 (200 pM)

B8: SENP2 (sentrin-specific protease 2) (protein)
chain: DLLELTEDMEKEISNALGHGPQDEILSSAFKLRITRGDIQTLKNYHWLNDEVINFYMNLLVERNKKQGYPALHVFSTFFYPKLKSGGYQAVKRWTKGVNLFEQEIILVPIHRKVHWSLVVIDLRKKCLKYLDSMGQKGHRICEILLQYLQDESKTKRNSDLNLLEWTHHSMKPHEIPQQLNGSDCGMFTCKYADYISRDKPITFTQHQMPLFRKKMVWEILHQQLL
- luminescence signal (S/B), enzyme 200 pM [1]: SENP1, SENP2, and SENP6 (200 pM) on the other hand gave strong signals with hSUMO2-amino-luciferin
- luminescence signal (S/B), enzyme 200 pM [2]: Z-Arg-Leu-Arg-Gly-Gly (SEQ ID NO: 1)-amino-luciferin also gave signals with SENP2 and SENP6 (200 pM)

B9: UCHL5 (protein)
chain: MTGNAGEWCLMESDPGVFTELIKGFGCRGAQVEEIWSLEPENFEKLKPVHGLIFLFKWQPGEEPAGSVVQDSRLDTIFFAKQVINNACATQAIVSVLLNCTHQDVHLGETLSEFKEFSQSFDAAMKGLALSNSDVIRQVHNSFARQQMFEFDTKTSAKEEDAFHFVSYVPVNGRLYELDGLREGPIDLGACNQDDWISAVRPVIEKRIQKYSEGEIRFNLMAIVSDRKMIYEQKIAELQRQLAEEEPMDTDQGNSMLSAIQSEVAKNQMLIEEEVQKLKRYKIENIRRKHNYLPFIMELLKTLAEHQQLIPLVEKAKEKQNAKKAQETK
- Signal to Background, luminescence, DUB 10 nM [2]: 1.4 S/B

B10: Otubain2 (Otub2) (protein)
chain: MSETSFNLISEKCDILSILRDHPENRIYRRKIEELSKRFTAIRKTKGDGNCFYRALGYSYLESLLGKSREIFKFKERVLQTPNDLLAAGFEEHKFRNFFNAFYSVVELVEKDGSVSSLLKVFNDQSASDHIVQFLRLLTSAFIRNRADFFRHFIDEEMDIKDFCTHEVEPMATECDHIQITALSQALSIALQVEYVDEMDTALNHHVFPEAATPSVYLLYKTSHYNILYAADKH
- Signal to Background, luminescence, DUB 10 nM [2]: 1.3 S/B
- Signal to Background, fluorescence, DUB 10 nM [3]: 1.2 S/B
- Signal to Background, fluorescence, DUB 10 nM [4]: 1.7 S/B
- Signal to Background, luminescence, DUB 10 nM (Ub(1-76)-aminoluciferin): 980 S/B

B11: UCHL3 (ubiquitin carboxyl-terminal hydrolase isozyme L3) (protein)
chain: MEGQRWLPLEANPEVTNQFLKQLGLHPNWQFVDVYGMDPELLSMVPRPVCAVLLLFPITEKYEVFRTEEEEKIKSQGQDVTSSVYFMKQTISNACGTIGLIHAIANNKDKMHFESGSTLKKFLEESVSMSPEERARYLENYDAIRVTHETSAHEGQTEAPSIDEKVDLHFIALVHVDGHLYELDGRKPFPINHGETSDETLLEDAIEVCKKFMERDPDELRFNAIALSAA
- signal to background (S/B) ratio, bioluminescence, 20 uM substrate, 40 nM UCHL3 [2]: a signal to background (S/B) ratio of ~1000 was obtained
- S/B against the S/B for Ub-AMC, UCHL3 0.01 nM (Ub(1-76)-aminoluciferin): ~50-fold greater than the S/B for Ub-AMC
- S/B against the S/B for Ub-rhodamine110, UCHL3 0.01 nM (Ub(1-76)-aminoluciferin): ~200-fold greater than the S/B for Ub-rhodamine110
- signal to background (S/B) ratio, bioluminescence, 100 nM substrate, 32 pM UCHL3 (Ub(1-76)-aminoluciferin): the same S/B ratio of 1000 was obtained with 100 nM Ub-amino-luciferin and UCHL3 at a concentration of 32 pM

B12: JosD2 (protein)
chain: MSQAPGAQPSPPTVYHERQRLELCAVHALNNVLQQQLFSQEAADEICKRLAPDSRLNPHRSLLGTGNYDVNVIMAALQGLGLAAVWWDRRRPLSQLALPQVLGLILNLPSPVSLGLLSLPLRRRHWVALRQVDGVYYNLDSKLRAPEALGDEDGVRAFLAAALAQGLCEVLLVVTKEVEEKGSWLRTD
- Signal to Background, luminescence, DUB 10 nM [2]: 2.1 S/B
- Signal to Background, fluorescence, DUB 10 nM [3]: 2.1 S/B
- Signal to Background, fluorescence, DUB 10 nM [4]: 8.2 S/B
- Signal to Background, luminescence, DUB 10 nM (Ub(1-76)-aminoluciferin): 760 S/B
